Reference: paper PMC3791465

Molecular target: 6 × His-tagged recombinant PHB2, Q99623
Experiment: SPR

Sequence of 6 × His-tagged recombinant PHB2, Q99623 (Q99623 whole entry): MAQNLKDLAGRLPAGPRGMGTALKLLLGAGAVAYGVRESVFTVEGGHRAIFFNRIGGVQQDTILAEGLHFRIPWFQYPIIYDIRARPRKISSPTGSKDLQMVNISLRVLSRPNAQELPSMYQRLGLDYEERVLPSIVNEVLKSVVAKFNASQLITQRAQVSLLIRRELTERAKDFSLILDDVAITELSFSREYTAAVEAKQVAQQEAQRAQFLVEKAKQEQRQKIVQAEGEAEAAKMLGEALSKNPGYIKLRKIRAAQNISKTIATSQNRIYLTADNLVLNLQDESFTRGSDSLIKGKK

Binder: QMLSDLTLQLRQR (modifications not checked) [ERα activity-regulator synthetic peptide (ERAP)]
- Kd: 18.9 µM
